Source: patent US20150259426A1 (Novartis, published 2015)

B1: 11D1 (monomeric anti-DR5 NB construct) (VHH)
VHH: EVQLVESGGGLVQPGGSLRLSCAASGSIDSINNMGWYRQAPGKQRELVAEITPRGRTNYADSEKSRFTISRDNAKRTVNLQMNSLKPEDTAVYYCNAEVRERGTSWYRPDYWGQGTQVTVSS
notes: llama VHH; periplasmic extract or purified monovalent material from E. coli; not shown: C-terminal c-myc tag and (His)6 tag coded by the vector
B2: 4E6 (monomeric anti-DR5 NB construct) (VHH)
VHH: EVQLVESGGGSVQAGDSLRLSCAASGRTFGSIRVGWFRQTPGKEREFVAAINRNDGTTYYADSVKGRFTISRDNAKNTVYMQMASLKPEDTAVYYCAAGLQYNRSADRVPVGAVYWGQGTQVTVSS
notes: llama VHH; periplasmic extract or purified monovalent material from E. coli; also called 4E6 parent; wild type 4E6; not shown: C-terminal c-myc tag and (His)6 tag coded by the vector
B3: 4E6-Hu (monovalent humanized, N-glycosylation knock-out variant of 4E6) (VHH)
VHH: EVQLLESGGGLVQPGGSLRLSCAASGRTFGSIRVGWFRQAPGKGREFVSAINRNDGTTYYADSVKGRFTISRDNSKNTVYLQMNSLRPEDTAVYYCAAGLQYNRAADRVPVGAVYWGQGTLVTVSS
notes: produced in E. coli and purified
B4: 10F1 (monomeric anti-DR5 NB construct) (VHH)
VHH: EVQLVESGGGLVQPGGSLRLSCAASGFTFSRYWMYWVRQAPGKGLEWVSAINSGGGDTYYRDSVRGRFTISRDNFKNTLYLQMNSLKSEDTAVYYCAKAEGPPTFSLIRTMTVDPGAQGTQVTVSS
notes: as for B1
B5: 7A12 (monomeric anti-DR5 NB construct) (VHH)
VHH: EVQLVESGGGLVQAGGSLRLSCAASGRTFSNYAMGWFRQAPGKEREFVAALNWSGGSTYYVDSVKGRFTISRDNAKNTVYLQMNSLKPEDTAVYYCAAAGSFSLGGRPYGDDYWGKGTLVTVSS
notes: as for B1

Assays:
[1] = biological target: T1, cell-bound human DR5 (Colo205 and other human cell lines) (human, UniProt O14763 56-440); experiment: FACS, periplasmic extract on Colo205 cells, anti-myc detection
T1 construct: endogenous DR5 of the cell lines

[2] = biological target: T2, cynomolgus DR5-Fc fusion protein (cyno DR5 amino acids 56 to 213 fused with human IgG1 Fc) (cynomolgus; human); experiment: SPR (Biacore), CM5 chip coated with cynomolgus DR5-Fc, 1 to 100 nM NB construct
[3] = biological target: T2, cynomolgus DR5-Fc fusion protein (cyno …); experiment: ELISA, periplasmic extract, plate coated with cynomolgus DR5-Fc, anti-myc detection
[4] = biological target: T3, cell-bound cynomolgus DR5 (CHO-K1 cells transfected with the full length cynoDR5 gene) (cynomolgus); experiment: FACS, periplasmic extract on CHO-K1 cells expressing cynomolgus DR5, anti-myc detection
T3 construct: whole, on cells

[5] = biological target: cynomolgus DR5 (construct used not stated) (cynomolgus); experiment: SPR kinetics (Biacore), cynomolgus DR5
[6] = biological target: T3, cell-bound cynomolgus DR5 (CHO-K1 cells …); experiment: FACS saturation binding, apparent KD, cell-bound cynomolgus DR5

Binder | mean count fluorescence [1] | Kd [2] | ABS405 nm [3] | mean count fluorescence [4] | Kd [5] | Kd [6]
B1 | 919 | 220 nM | 0.213 ABS405 nm | 417 |  | 
B2 | 972 | 16 nM | 0.313 ABS405 nm | 2870 | 5.5 nM | 7.3 nM
B3 |  |  |  |  | 1.6 nM | 8.8 nM
B4 | 125 | 140 nM | 0.124 ABS405 nm | 1630 |  | 
B5 | 1100 | 7.1 nM | 0.341 ABS405 nm | 24500 |  | 
